Reference: patent US20240409658A1 (Seagen, published 2024)
Read-outs that look alike come from different tables or passages of the source. One block for each binder: values may come before it.

Tests used:
[1] = molecular target: T1, human CD228 (R&D Systems Custom02; Lot DCWR021505A) (human, UniProt P08582 20-709, limits assumed); assay: ELISA on plate-coated human CD228, pH 7.1
T1 sequence (looked up): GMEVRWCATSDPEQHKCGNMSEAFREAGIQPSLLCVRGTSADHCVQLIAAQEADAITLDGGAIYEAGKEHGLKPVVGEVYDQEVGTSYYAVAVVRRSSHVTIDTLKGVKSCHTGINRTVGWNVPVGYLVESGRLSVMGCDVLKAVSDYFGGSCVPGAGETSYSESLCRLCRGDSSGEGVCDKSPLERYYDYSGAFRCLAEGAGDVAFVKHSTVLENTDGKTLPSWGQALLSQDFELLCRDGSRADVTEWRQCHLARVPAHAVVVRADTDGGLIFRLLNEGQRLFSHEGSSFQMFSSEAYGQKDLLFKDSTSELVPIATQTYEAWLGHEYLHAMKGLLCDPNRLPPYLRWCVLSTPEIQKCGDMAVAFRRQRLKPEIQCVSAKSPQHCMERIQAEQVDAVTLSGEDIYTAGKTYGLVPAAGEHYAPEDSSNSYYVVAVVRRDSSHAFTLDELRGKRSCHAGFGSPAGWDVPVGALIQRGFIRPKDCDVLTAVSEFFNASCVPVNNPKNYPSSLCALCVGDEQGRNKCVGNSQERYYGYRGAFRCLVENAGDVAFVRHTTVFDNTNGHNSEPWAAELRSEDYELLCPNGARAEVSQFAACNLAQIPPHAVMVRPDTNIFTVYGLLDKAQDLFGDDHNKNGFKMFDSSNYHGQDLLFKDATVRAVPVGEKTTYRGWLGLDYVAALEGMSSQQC
Experimental: (§1) The ability of various anti-CD228 ADCs to bind to CD228 was evaluated at pH values ranging from 4 to 7.5 using a standard ELISA protocol. Briefly, 100 ng of human CD228 (R&D Systems Custom02; Lot DCWR021505A) or BSA (Sigma; Catalog No. A7030-100G) were diluted in PBS and added to each well overnight at 4° C. Plates were then washed three times with PBS-T (EMD Millipore; Catalog No. 5246531EA). After washing, plates were blocked with 3% (w/v) BSA in PBS-T for 1 hour at room temperature. Excess blocking buffer was then removed and the primary antibody was added in 3-fold dilutions in diluent buffer (0.15M citrate-phosphate buffer pH 4.0-7.5) starting at an antibody concentration of 60 nM. After incubating for 1 hour at room temperature, the plates were washed 3 times and then incubated with secondary antibody (Goat anti-human IgG Fc-specific HRP-conjugated, Jackson ImmunoResearch code #109-035-098) in PBS-T with 1% BSA. After incubating for 30 minutes at room temperature, plates were washed 3 times. 100 μl TMB substrate (Life Technologies; Cat #002023) was then added to each well. After incubating 10 minutes at room temperature, 100 μl H2SO4 was added to each well to stop the reaction, plates were covered with clear plate seal and read on an Envision at […]. pH-dependent binding for hL49, cL235, CD228Ab1, CD228Ab2 and CD228Ab3, CD228Ab4 are shown in FIG. 34A-34F.

[2] = molecular target: T1, human CD228 (R&D Systems Custom02; Lot …); assay: ELISA on plate-coated human CD228, pH 7.5
Experimental: as §1

[3] = molecular target: T1, human CD228 (R&D Systems Custom02; Lot …); assay: ELISA on plate-coated human CD228, pH 5.6
Experimental: as §1

[4] = molecular target: T1, human CD228 (R&D Systems Custom02; Lot …); assay: ELISA on plate-coated human CD228, pH 5.9
Experimental: as §1

[5] = molecular target: T1, human CD228 (R&D Systems Custom02; Lot …); assay: ELISA on plate-coated human CD228, pH 6.66
Experimental: as §1

[6] = molecular target: T1, human CD228 (R&D Systems Custom02; Lot …); assay: ELISA on plate-coated human CD228, pH 6.3
Experimental: as §1

[7] = molecular target: T2, human CD228 on the cell surface (RPMI-7951 cells stably expressing human CD228; A375 cells) (human, UniProt P08582 20-709); assay: saturation binding by flow cytometry, RPMI-7951 cells stably expressing human CD228; PE anti-human IgG secondary; row 'ug/mL' of the drawn table headed 'kD'
T2 construct: whole, on cells; also called p97; melanotransferrin
T2 sequence (looked up): T1 sequence (looked up)
Experimental: (§2) The KD for each resulting antibody was then determined by a saturation binding assay. Briefly, 1×10⁵ RPMI-7951 cells stably expressing human CD228 were aliquoted per well of a 96-well v-bottom plates. Each CD228 antibody was added in concentrations ranging from 0.05 pM to 340 nM and incubated on ice for 60 minutes. Cells were pelleted and washed 3× with PBS/BSA followed by addition of 10 ug/ml of a PE labeled anti-human IgG goat secondary antibody and incubated on ice for an additional 60 minutes. Cells were pelleted and washed 3× with PBS/BSA and resuspended in 125 μL of PBS/BSA. Fluorescence was analyzed by flow cytometry, using percent of saturated fluorescent signal to determine percent bound and to subsequently calculate apparent KD. The binding curves for recombinant human anti-CD228 antibodies are shown in FIG. 13 and the KD for cL49ec (chimeric LA9 with an S239C mutation in the […] constant region), hL49 HALA G1, hL49 HALB G1, and hL49 HALC G1 are shown in Table 8. The antibody called “HALC,” “hL49,” or “hL49-HALC” which comprises heavy chain “HA” and the light chain “LC” was selected for use in all other experiments.

[8] = molecular target: T1, human CD228 (R&D Systems Custom02; Lot …); assay: ELISA on plate-coated human CD228, pH 7.4
Experimental: as §1

[9] = molecular target: T2, human CD228 on the cell surface …; assay: saturation binding by flow cytometry on RPMI-7951 cells stably expressing human CD228; apparent KD
Experimental: as §2

[10] = molecular target: T2, human CD228 on the cell surface …; assay: competition flow cytometry, RPMI-7951 cells stably expressing human CD228; competitor 5 nM AF647-labeled mL49; unlabeled antibody 0.06-1000 nM
Experimental: (§3) Binding curves for each resulting antibody was determined by a competition binding assay. Briefly, 1×10⁵ RPMI-7951 cells stably expressing human CD228 were aliquoted per well of a 96-well v-bottom plates on ice. […] Cells were pelleted and washed 3 times with PBS/BSA. The cells were pelleted and resuspended in 125 μL of PBS/BSA. Fluorescence was analyzed by flow cytometry, using percent of saturated fluorescent signal to determine percent labeled murine CD228 mAb bound.

[11] = molecular target: T2, human CD228 on the cell surface …; assay: as above; remark: listed apart in the source
Experimental: as §3

[12] = molecular target: T2, human CD228 on the cell surface …; assay: as above; remark: listed apart in the source
Experimental: as §3

[13] = molecular target: T2, human CD228 on the cell surface …; assay: as above; remark: listed apart in the source
Experimental: as §3

[14] = molecular target: T2, human CD228 on the cell surface …; assay: as above; remark: listed apart in the source
Experimental: as §3

[15] = molecular target: T2, human CD228 on the cell surface …; assay: as above; remark: listed apart in the source
Experimental: as §3

EC50 [1]: 1.1 nM
EC50 [2]: 1.18 nM
EC50 [3]: 21.8 nM
EC50 [4]: 5.31 nM
EC50 [5]: 1.54 nM
EC50 [6]: 2.96 nM
Kd [7]: 0.6 µg/mL
EC50 [8]: 0.856 nM
Kd [9]: 4 nM
B1: hL49 HALC G1 (antibody, human IgG1, kappa, V domains shown)
VH: QVQLQESGPGLVKPSETLSLTCTVSGDSITSGYWNWIRQPPGKGLEYIGYISDSGITYYNPSLKSRVTISRDTSKNQYSLKLSSVTAADTAVYYCARRTLATYYAMDYWGQGTLVTVSS
VL: DFVMTQSPLSLPVTLGQPASISCRASQSLVHSDGNTYLHWYQQRPGQSPRLLIYRVSNRFSGVPDRFSGSGSGTDFTLKISRVEAEDVGVYYCSQSTHVPPTFGQGTKLEIKT
notes: Humanized L49, IgG1 kappa

IC50 (read off the curve) [10]: 10 to 20 nM
IC50 (read off the curve) [11]: 10 to 20 nM
IC50 (read off the curve) [12]: 10 to 20 nM
IC50 (read off the curve) [13]: 10 to 20 nM
IC50 (read off the curve) [14]: 10 to 20 nM
IC50 (read off the curve) [15]: 10 to 20 nM
B2: mouse antibody L49 (mL49), AlexaFluor-647 labeled parental murine CD228 mAb (antibody, mouse IgG1, V domains shown)
VH: EVQLQESGPSLVKPSQTLSLTCSVTGDSITSGYWNWIRKFPGNKLEYMGYISDSGITYYNPSLKSRISITRDTSKNQYYLQLNFVTAEDTATYNCARRTLATYYAMDYWGQGTSVTVSS
VL: DFVMTQTPLSLPVSLGDQASISCRASQSLVHSNGNTYLHWYLQKPGQSPKLLIYRVSNRFSGVPDRFSGSGSGTDFTLKISRVEAEDLGVYFCSQSTHVPPTFGGGTKLEIK
notes: also called Mu L49
